One block for each substance: values may come before it.
How the values were obtained:
STAT3 [1] = molecular target: STAT3 (UniProt P40763); assay: anti-Flag IP of purified Flag-STAT3 and GST-STAT3; conditions: reference: wild type GST- and Flag-STAT3; sites T622
STAT3 [2] = molecular target: STAT3 (UniProt P40763); assay: anti-Flag co-IP, Flag-STAT3 with HA-STAT3; conditions: reference: wild type STAT3; sites T622
STAT3 [3] = molecular target: STAT3 (UniProt P40763); assay: size exclusion chromatography, fractions immunoblotted; conditions: sites T622

STAT3, sequence (P40763 whole entry, stated change not applied): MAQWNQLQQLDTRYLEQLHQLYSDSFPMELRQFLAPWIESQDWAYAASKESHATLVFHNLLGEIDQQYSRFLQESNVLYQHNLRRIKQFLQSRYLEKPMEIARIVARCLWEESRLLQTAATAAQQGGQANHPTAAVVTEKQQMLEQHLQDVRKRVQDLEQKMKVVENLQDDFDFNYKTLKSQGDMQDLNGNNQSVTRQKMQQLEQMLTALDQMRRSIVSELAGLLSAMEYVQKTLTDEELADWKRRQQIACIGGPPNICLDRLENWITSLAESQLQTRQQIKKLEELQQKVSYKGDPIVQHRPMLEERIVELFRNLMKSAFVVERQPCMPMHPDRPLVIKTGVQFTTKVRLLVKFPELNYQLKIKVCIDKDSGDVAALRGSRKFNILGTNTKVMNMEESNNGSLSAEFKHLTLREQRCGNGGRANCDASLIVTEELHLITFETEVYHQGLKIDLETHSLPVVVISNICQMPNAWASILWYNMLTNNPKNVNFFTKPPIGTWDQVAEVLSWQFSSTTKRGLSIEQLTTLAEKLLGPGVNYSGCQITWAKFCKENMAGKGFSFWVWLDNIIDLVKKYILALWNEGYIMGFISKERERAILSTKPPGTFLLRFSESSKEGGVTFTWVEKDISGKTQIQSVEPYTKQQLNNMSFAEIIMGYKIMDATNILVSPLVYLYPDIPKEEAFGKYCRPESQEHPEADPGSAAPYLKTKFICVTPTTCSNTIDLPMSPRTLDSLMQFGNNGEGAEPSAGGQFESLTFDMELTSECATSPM

binding against the reference (STAT3 [1]): stronger
Substance: STAT3 (from UniProt P40763) T622A GST- and Flag-STAT3

binding against the reference (STAT3 [2]): stronger
Substance: STAT3 (from UniProt P40763) STAT3 T622A

Substance: STAT3 (from UniProt P40763) His-MST2 treated
binding against the reference (STAT3 [3]; reference: untreated WT Flag-STAT3): same

binding against the reference (STAT3 [3]; reference: wild type Flag-STAT3): stronger
Substance: STAT3 (from UniProt P40763) Flag-STAT3 T622A

— paper PMC9357639
